Conditions: whole UniProt chain shown
[1] = Pyrococcus furiosus (strain ATCC 43587 / DSM 3638 / JCM 8422 / Vc1), pH 7, 40 °C, GdnHCl, CD, Tris-HCl 20 mM, reversible: yes
[2] = Pyrococcus furiosus (strain ATCC 43587 / DSM 3638 / JCM 8422 / Vc1), pH 7, 60 °C, GdnHCl, CD, Tris-HCl 20 mM, reversible: yes
[3] = Rattus norvegicus, pH 7, 25 °C, Urea, CD, Sodium phosphate 25 mM, NaCl 75 mM, reversible: yes
[4] = Rattus norvegicus, pH 7, 25 °C, Urea, Fluorescence, Sodium phosphate 25 mM, NaCl 75 mM, reversible: yes
[5] = Rattus norvegicus, pH 7, 27 °C, Urea, CD, Phosphate 10 mM
[6] = Rattus norvegicus, pH 7, 27 °C, Urea, Magnetic Relaxation Dispersion, Phosphate 10 mM
[7] = Rattus norvegicus, pH 7.2, 20 °C, GdnHCl, Fluorescence, Potassium phosphate 20 mM, reversible: yes
[8] = Rattus norvegicus, pH 7.4, 20 °C, GdnHCl, CD, Potassium phosphate 20 mM, reversible: yes
[9] = Rattus norvegicus, pH 7.4, 20 °C, GdnHCl, Fluorescence, Potassium phosphate 20 mM, reversible: yes
[10] = Rattus norvegicus, pH 8, 25 °C, Urea, CD, NaH2PO4 25 mM/, NaCl 75 mM, reversible: Yes
[11] = Rattus norvegicus, pH 8, 25 °C, Urea, Fluorescence, NaH2PO4 25 mM/, NaCl 75 mM, reversible: Yes
[12] = Rattus norvegicus, pH 9.6, 20 °C, GdnHCl, Fluorescence, Sodium pyrophosphate 20 mM, reversible: yes
[13] = Rattus norvegicus, pH 7.5, Thermal, CD, phosphate 10 mM, NaF 100 mM, reversible: yes
[14] = Saccharolobus solfataricus (strain ATCC 35092 / DSM 1617 / JCM 11322 / P2), pH 5.5, Thermal, CD, Acetate 50 mM

B1: Pyrrolidone-carboxylate peptidase wild type, O73944 (protein)
chain: MKVLVTGFEPFGGEKINPTERIAKDLDGIKIGDAQVFGRVLPVVFGKAKEVLEKTLEEIKPDIAIHVGLAPGRSAISIERIAVNAIDARIPDNEGKKIEDEPIVPGAPTAYFSTLPIKKIMKKLHERGIPAYISNSAGLYLCNYVMYLSLHHSATKGYPKMSGFIHVPYIPEQIIDKIGKGQVPPSMCYEMELEAVKVAIEVALEELL
- denaturant m value [1]: 4.66 kcal/mol/M
- denaturant midpoint (higher = more stable) [1]: 0.4 M
- unfolding free energy [1]: 1.82 kcal/mol
- denaturant m value [2]: 4.13 kcal/mol/M
- denaturant midpoint (higher = more stable) [2]: 3.2 M
- unfolding free energy [2]: 13 kcal/mol

B2: Cytochrome b5 type B wild type, P04166 (protein)
chain: MATPEASGSGRNGQGSDPAVTYYRLEEVAKRNTAEETWMVIHGRVYDITRFLSEHPGGEEVLLEQAGADATESFEDVGHSPDAREMLKQYYIGDVHPNDLKPKDGDKDPSKNNSCQSSWAYWIVPIVGAILIGFLYRHFWADSKSS
- denaturant midpoint (higher = more stable) (Rattus norvegicus, pH 7, 25 °C, GdmSCN, UV/visible spectrophotometer, MOPS 30mM): 2.04 M
- Tm (Rattus norvegicus, pH 7, Thermal, UV/visible spectrophotometer, Potassium phosphate 50mM): 85.5 °C

B3: Fatty acid-binding protein, brain wild type, P55051 (protein)
chain: MVDAFCATWKLTDSQNFDEYMKALGVGFATRQVGNVTKPTVIISQEGGKVVIRTQCTFKNTEISFQLGEEFEETSIDDRNCKSVIRLDGDKLIHVQKWDGKETNCVREIKDGKMVVTLTFGDVVAVRCYEKA
- denaturant m value [3]: 1.04 kcal/mol/M
- denaturant midpoint (higher = more stable) [3]: 4.1 M
- unfolding free energy [3]: 4.28 kcal/mol
- denaturant m value [4]: 1.13 kcal/mol/M
- denaturant midpoint (higher = more stable) [4]: 4.24 M
- unfolding free energy [4]: 4.79 kcal/mol
- denaturant m value [5]: 1 kcal/mol/M
- denaturant midpoint (higher = more stable) [5]: 5.1 M
- denaturant m value [6]: 0.88 kcal/mol/M
- denaturant midpoint (higher = more stable) [6]: 6.5 M
- denaturant midpoint (higher = more stable) [7]: 1.36 M
- unfolding free energy [7]: 5.22 kcal/mol
- denaturant m value [8]: 5.33 kcal/mol/M
- denaturant midpoint (higher = more stable) [8]: 1.32 M
- unfolding free energy [8]: 7.06 kcal/mol
- denaturant m value [9]: 3.82 kcal/mol/M
- denaturant midpoint (higher = more stable) [9]: 1.36 M
- unfolding free energy [9]: 5.22 kcal/mol
- unfolding free energy [10]: 5.86 kcal/mol
- unfolding free energy [11]: 5.28 kcal/mol
- denaturant midpoint (higher = more stable) [12]: 1.41 M
- unfolding free energy [12]: 5.59 kcal/mol

B4: Cytochrome b5 wild type, P00173 (protein)
chain: MAEQSDKDVKYYTLEEIQKHKDSKSTWVILHHKVYDLTKFLEEHPGGEEVLREQAGGDATENFEDVGHSTDARELSKTYIIGELHPDDRSKIAKPSETLITTVESNSSWWTNWVIPAISALVVALMYRLYMAED
- Tm (Rattus norvegicus, pH 7, Thermal, UV spectroscopy, Sodium phosphate 50 mM, reversible: Yes): 93.1 °C

B5: Homeobox protein Nkx-2.1 wild type, P23441 (protein)
chain: MSMSPKHTTPFSVSDILSPLEESYKKVGMEGGGLGAPLAAYRQGQAAPPAAAMQQHAVGHHGAVTAAYHMTAAGVPQLSHSAVGGYCNGNLGNMSELPPYQDTMRNSASGPGWYGANPDPRFPAISRFMGPASGMNMSGMGGLGSLGDVSKNMAPLPSAPRRKRRVLFSQAQVYELERRFKQQKYLSAPEREHLASMIHLTPTQVKIWFQNHRYKMKRQAKDKAAQQQLQQDSGGGGGGGGGAGCPQQQQAQQQSPRRVAVPVLVKDGKPCQAGAPAPGAASLQGHAQQQAQQQAQAAQAAAAAISVGSGGAGLGAHPGHQPGSAGQSPDLAHHAASPAALQGQVSSLSHLNSSGSDYGAMSCSTLLYGRTW
- unfolding free energy (Rattus norvegicus, pH 7.5, 25 °C, Urea, CD, phosphate 10 mM, NaF 100 mM, reversible: yes): 1.26 kcal/mol
- Tm [13]: 42.8 °C
- unfolding free energy [13]: 1.44 kcal/mol

B6: Parvalbumin alpha wild type, P02625 (protein)
chain: MSMTDLLSAEDIKKAIGAFTAADSFDHKKFFQMVGLKKKSADDVKKVFHILDKDKSGFIEEDELGSILKGFSSDARDLSAKETKTLMAAGDKDGDGKIGVEEFSTLVAES
- unfolding free energy (Rattus norvegicus, pH 7.74, 30 °C, Thermal, CD, piperazine 10 mM, KCl 200 mM): 0.7 kcal/mol
- Tm (Rattus norvegicus, pH 7.74, Thermal, CD, piperazine 10 mM, KCl 200 mM): 35 °C

B7: Gastrotropin wild type, P80020 (protein)
chain: MAFTGKYEFESEKNYDEFMKRLGLPDEVIERGRNFKIITEVQQDGENFTWSQSYSGGNIMSNKFTIGKECEMQTMGGKKFKATVKMEGGKVVADFPNYHQTSEVVGDKLVEISTIGDVTYERVSKRVA
- unfolding free energy [10]: 4.39 kcal/mol
- unfolding free energy [11]: 4.71 kcal/mol

B8: Cytochrome c2 wild type, P00094 (protein)
chain: MKISLTAATVAALVLAAPAFAGDAAKGEKEFNKCKTCHSIIAPDGTEIVKGAKTGPNLYGVVGRTAGTYPEFKYKDSIVALGASGFAWTEEDIATYVKDPGAFLKEKLDDKKAKTGMAFKLAKGGEDVAAYLASVVK
- denaturant midpoint (higher = more stable) (Rhodobacter capsulatus (strain ATCC BAA-309 / NBRC 16581 / SB1003), pH 7.5, 30 °C, GdnHCl, CD, Tris 20 mM): 1.54 M

B9: Acylphosphatase wild type, Q97ZL0 (protein)
chain: MKKWSDTEVFEMLKRMYARVYGLVQGVGFRKFVQIHAIRLGIKGYAKNLPDGSVEVVAEGYEEALSKLLERIKQGPPAAEVEKVDYSFSEYKGEFEDFETY
- unfolding free energy (Saccharolobus solfataricus (strain ATCC 35092 / DSM 1617 / JCM 11322 / P2), pH 5.5, 28 °C, GdnHCl, CD, Acetate 50 mM): 11.6 kcal/mol
- unfolding free energy (Saccharolobus solfataricus (strain ATCC 35092 / DSM 1617 / JCM 11322 / P2), pH 5.5, 81 °C, GdnHCl, CD, Acetate 50 mM): 4.94 kcal/mol
- Tm [14]: 101 °C
- heat capacity change of unfolding [14]: 1.15 kcal/mol/K
- unfolding enthalpy (van 't Hoff) [14]: 105 kcal/mol

B10: Methylated-DNA--protein-cysteine methyltransferase wild type, Q97VW7 (protein)
chain: MLVYGLYKSPLGYITVAKDDKGFIMLDFCDCVEGNSRDDSSFTEFFHKLDLYFEGKPINLREPINLKTYPFRLSVFKEVMKIPWGKVMTYKQIADSLGTSPRAVGMALSKNPILLIIPCHRVIAENGIGGYSRGVKLKRALLELEGVKIPE
- Tm (Saccharolobus solfataricus (strain ATCC 35092 / DSM 1617 / JCM 11322 / P2), pH 7.4, Thermal, DSF, PBS, transition: 2): 82.9 °C
